Source: patent publication US20230265151A1, “GIP/GLP1 CO-AGONIST COMPOUNDS” (priority 2020, published 2023)
*1 amine or outer side, *2 acyl side, *3 side chain or, on linkers, in order; H or OH if unused. Where no end group is shown, it is not given here. Side-chain parts run from the residue outwards. [ ]: non-standard residue; d: D form. The star is where a group is joined. αMePhe(2-F) = C[C@](N)(Cc1ccccc1F)C(=O)O; γGlu = O=C(O)[C@H](CCC(=O)[*:2])N[*:1]; C14 diacid = O=C(O)CCCCCCCCCCCCC(=O)*; αMeY = C[C@](N)(Cc1ccc(O)cc1)C(=O)O; αMeL = CC(C)C[C@](C)(N)C(=O)O; Orn = NCCC[C@H](N)C(=O)O; AEEA = NCCOCCOCC(=O)O; Aib = CC(C)(N)C(=O)O

T1: human GIP receptor (human, UniProt P48546 22-466)
T1 sequence (looked up): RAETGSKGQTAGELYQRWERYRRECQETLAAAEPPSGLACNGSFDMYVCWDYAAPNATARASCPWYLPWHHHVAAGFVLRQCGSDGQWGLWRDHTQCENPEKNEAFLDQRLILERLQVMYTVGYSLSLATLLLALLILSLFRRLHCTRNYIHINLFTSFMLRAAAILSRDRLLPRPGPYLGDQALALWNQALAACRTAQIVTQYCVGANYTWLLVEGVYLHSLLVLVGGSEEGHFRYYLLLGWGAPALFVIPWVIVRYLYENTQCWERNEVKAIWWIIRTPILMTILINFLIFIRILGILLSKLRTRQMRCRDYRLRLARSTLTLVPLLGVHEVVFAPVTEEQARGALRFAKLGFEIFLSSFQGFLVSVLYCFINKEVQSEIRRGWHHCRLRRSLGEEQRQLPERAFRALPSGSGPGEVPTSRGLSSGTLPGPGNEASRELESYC

B1: Example 448 (peptide)
peptide: Y[Aib]EGT[αMePhe(2-F)]TSDV[Aib]I[αMeL]LD[Orn]QAQ[Aib][Orn]FIK([AEEA-AEEA-γGlu-C14 diacid])[αMeY]LIK([AEEA-AEEA-γGlu-C14 diacid])GGPSSGAPPPS-NH2
modifications: N-terminus assumed
SMILES: CC[C@H](C)[C@H](NC(=O)[C@H](CC(C)C)NC(=O)[C@](C)(Cc1ccc(O)cc1)NC(=O)[C@H](CCCCNC(=O)COCCOCCNC(=O)COCCOCCNC(=O)CC[C@H](NC(=O)CCCCCCCCCCCCC(=O)O)C(=O)O)NC(=O)[C@@H](NC(=O)[C@H](Cc1ccccc1)NC(=O)[C@H](CCCN)NC(=O)C(C)(C)NC(=O)[C@H](CCC(N)=O)NC(=O)[C@H](C)NC(=O)[C@H](CCC(N)=O)NC(=O)[C@H](CCCN)NC(=O)[C@H](CC(=O)O)NC(=O)[C@H](CC(C)C)NC(=O)[C@](C)(CC(C)C)NC(=O)[C@@H](NC(=O)C(C)(C)NC(=O)[C@@H](NC(=O)[C@H](CC(=O)O)NC(=O)[C@H](CO)NC(=O)[C@@H](NC(=O)[C@](C)(Cc1ccccc1F)NC(=O)[C@@H](NC(=O)CNC(=O)[C@H](CCC(=O)O)NC(=O)C(C)(C)NC(=O)[C@@H](N)Cc1ccc(O)cc1)[C@@H](C)O)[C@@H](C)O)C(C)C)[C@@H](C)CC)[C@@H](C)CC)C(=O)N[C@@H](CCCCNC(=O)COCCOCCNC(=O)COCCOCCNC(=O)CC[C@H](NC(=O)CCCCCCCCCCCCC(=O)O)C(=O)O)C(=O)NCC(=O)NCC(=O)N1CCC[C@H]1C(=O)N[C@@H](CO)C(=O)N[C@@H](CO)C(=O)NCC(=O)N[C@@H](C)C(=O)N1CCC[C@H]1C(=O)N1CCC[C@H]1C(=O)N1CCC[C@H]1C(=O)N[C@@H](CO)C(N)=O
B2: Example 449 (peptide)
peptide: YXEGTXTSDXXIXLDXQAQXXFIKXLIKGGPSSGAPPPS
modifications: not fully specified; Y-Aib-EGT-αMeF(2F)-TSD-4Pal-Aib-I-αMeL-LD-Orn-QAQ-Aib-Orn-FIK((2-[2-(2-Amino-ethoxy)-ethoxy]-acetyl)-Ahx-(γ-Glu)-CO-(CH2)12-CO2)-αMeY-LIK((2-[2-(2-Amino-ethoxy)-ethoxy]-acetyl)-Ahx-(γ-Glu)-CO-(CH2)12-CO2)GGPSSGAPPPS-NH2
B3: Example 453 (peptide)
peptide: YXEGTXTSDXXIXLDXQAQXXFIKXLIKGGPSSGAPPPS
modifications: Y-Aib-EGT-αMeF(2F)-TSD-4Pal-Aib-I-αMeL-LD-Orn-QAQ-Aib-Orn-FIK((2-[2-(2-Amino-ethoxy)-ethoxy]-acetyl)-Ahx-(γ-Glu)-(10-(4-carboxyphenoxy)decanoyl))-αMeY-LIK((2-[2-(2-Amino-ethoxy)-ethoxy]-acetyl)-Ahx-(γ-Glu)-(10-(4-carboxyphenoxy)decanoyl))GGPSSGAPPPS-NH2
B4: Example 461 (peptide)
peptide: YXEGTXTSDXXIXLDXQAQXXFIKXLIKGGPSSGAPPPS
modifications: Y-Aib-EGT-αMeF(2F)-TSD-4Pal-Aib-I-αMeL-LD-Orn-QAQ-Aib-Orn-FIK(PEG4-(γ-Glu)-(10-(4-carboxyphenoxy)decanoyl))-αMeY-LIK(PEG4-(γ-Glu)-(10-(4-carboxyphenoxy)decanoyl))GGPSSGAPPPS-NH2
B5: Example 458 (peptide)
peptide: YXEGTXTSDXXIXLDXQAQXXFIKXLIKGGPSSGAPPPS
modifications: Y-Aib-EGT-αMeF(2F)-TSD-4Pal-Aib-I-αMeL-LD-Orn-QAQ-Aib-Orn-FIK(PEG3-(γ-Glu)-CO-(CH2)12-CO2H)-αMeY-LIK(PEG3-(γ-Glu)-CO-(CH2)12-CO2H)GGPSSGAPPPS-NH2
B6: Example 450 (peptide)
peptide: YXEGTXTSDXXIXLDXQAQXXFIKXLIKGGPSSGAPPPS
modifications: not fully specified; Y-Aib-EGT-αMeF(2F)-TSD-4Pal-Aib-I-αMeL-LD-Orn-QAQ-Aib-Orn-FIK((2-[2-(2-Amino-ethoxy)-ethoxy]-acetyl)-Aoc-(γ-Glu)-CO-(CH2)12-CO2)-αMeY-LIK((2-[2-(2-Amino-ethoxy)-ethoxy]-acetyl)-Aoc-(γ-Glu)-CO-(CH2)12-CO2)GGPSSGAPPPS-NH2
B7: Example 471 (peptide)
peptide: YXEGTXTSDXXIXLDXQAQXXFIKXLIKGGPSSGAPPPS
modifications: Y-Aib-EGT-αMeF(2F)-TSD-4Pal-Aib-I-αMeL-LD-Orn-QAQ-Aib-Orn-FIK((2-[2-(2-Amino-ethoxy)-ethoxy]-acetyl)2--Trx-(γ-Glu)-(10-(4-carboxyphenoxy)decanoyl))-αMeY-LIK(((2-[2-(2-Amino-ethoxy)-ethoxy]-acetyl)2--Trx-(γ-Glu)-(10-(4-carboxyphenoxy)decanoyl))GGPSSGAPPPS-NH2)
B8: Example 457 (peptide)
peptide: YXEGTXTSDXXIXLDXQAQXXFIKXLIKGGPSSGAPPPS
modifications: Y-Aib-EGT-αMeF(2F)-TSD-4Pal-Aib-I-αMeL-LD-Orn-QAQ-Aib-Orn-FIK(PEG4-(γ-Glu)-CO-(CH2)12-CO2H)-αMeY-LIK(PEG4-(γ-Glu)-CO-(CH2)12-CO2H)GGPSSGAPPPS-NH2
B9: Example 466 (peptide)
peptide: YXEGTXTSDXXIXLDXQAQXXFIKXLIKGGPSSGAPPPS
modifications: Y-Aib-EGT-αMeF(2F)-TSD-4Pal-Aib-I-αMeL-LD-Orn-QAQ-Aib-Orn-FIK(PEG6-(γ-Glu)-CO-(CH2)12-CO2H)-αMeY-LIK(PEG6-(γ-Glu)-CO-(CH2)12-CO2H)GGPSSGAPPPS-NH2
B10: Example 475 (peptide)
peptide: YXEGTXTSDXXIXLDXQAQXXFIKXLIKGGPSSGAPPPS
modifications: Y-Aib-EGT-αMeF(2F)-TSD-4Pal-Aib-I-αMeL-LD-Orn-QAQ-Aib-Orn-FIK((2-[2-(2-Amino-ethoxy)-ethoxy]-acetyl)2-(γ-Glu)2--(10-(4-carboxyphenoxy)decanoyl))-αMeY-LIK((2-[2-(2-Amino-ethoxy)-ethoxy]-acetyl)2-(γ-Glu)2--(10-(4-carboxyphenoxy)decanoyl))GGPSSGAPPPS-NH2
B11: Example 454 (peptide)
peptide: YXEGTXTSDXXIXLDXQAQXXFIKXLIKGGPSSGAPPPS
modifications: not fully specified; Y-Aib-EGT-αMeF(2F)-TSD-4Pal-Aib-I-αMeL-LD-Orn-QAQ-Aib-Orn-FIK((2-[2-(2-Amino-ethoxy)-ethoxy]10-(4-carboxyphenoxy)decanoyl))-αMeY-LIK((2-[2-(2-Amino-ethoxy)-ethoxy]-acetyl)-Aoc-(γ-Glu)-(10-(4-carboxyphenoxy)decanoyl))GGPSSGAPPPS-NH2
B12: Example 452 (peptide)
peptide: YXEGTXTSDXXIXLDXQAQXXFIKXLIKGGPSSGAPPPS
modifications: not fully specified; Y-Aib-EGT-αMeF(2F)-TSD-4Pal-Aib-I-αMeL-LD-Orn-QAQ-Aib-Orn-FIK(Aoc-(2-[2-(2-Amino-ethoxy)-ethoxy]-acetyl)-(γ-Glu)-CO-(CH2)12-CO2)-αMeY-LIK(Aoc-(2-[2-(2-Amino-ethoxy)-ethoxy]-acetyl)-(γ-Glu)-CO-(CH2)12-CO2)GGPSSGAPPPS-NH2
B13: Example 451 (peptide)
peptide: YXEGTXTSDXXIXLDXQAQXXFIKXLIKGGPSSGAPPPS
modifications: not fully specified; Y-Aib-EGT-αMeF(2F)-TSD-4Pal-Aib-I-αMeL-LD-Orn-QAQ-Aib-Orn-FIK(Ahx-(2-[2-(2-Amino-ethoxy)-ethoxy]-acetyl)-(γ-Glu)-CO-(CH2)12-CO2)-αMeY-LIK(Ahx-(2-[2-(2-Amino-ethoxy)-ethoxy]-acetyl)-(γ-Glu)-CO-(CH2)12-CO2)GGPSSGAPPPS-NH2

How the values were obtained:
Experiment in all cases: cell-based or functional assay
human GIP receptor = biological target: T1, human GIP receptor
human glucagon receptor = human glucagon receptor (human, UniProt P47871 26-477)
human GLP-1 receptor = human GLP-1 receptor (human, UniProt P43220 24-463)

Chain of human glucagon receptor (P47871 26-477): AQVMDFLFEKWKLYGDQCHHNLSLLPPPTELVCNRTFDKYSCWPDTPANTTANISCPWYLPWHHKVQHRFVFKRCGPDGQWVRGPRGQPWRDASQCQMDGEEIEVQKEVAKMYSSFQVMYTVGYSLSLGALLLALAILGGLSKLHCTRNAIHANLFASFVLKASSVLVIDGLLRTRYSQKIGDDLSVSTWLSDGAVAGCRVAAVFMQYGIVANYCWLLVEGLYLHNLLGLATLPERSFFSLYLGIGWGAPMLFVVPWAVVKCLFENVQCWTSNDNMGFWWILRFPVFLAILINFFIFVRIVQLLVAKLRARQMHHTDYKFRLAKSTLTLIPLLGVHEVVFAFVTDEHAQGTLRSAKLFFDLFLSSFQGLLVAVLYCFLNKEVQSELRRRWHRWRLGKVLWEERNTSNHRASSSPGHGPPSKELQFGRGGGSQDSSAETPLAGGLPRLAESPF

Binder | cAMP EC50 (1.0% HSA) (human GIP receptor) [nM] | cAMP EC50 (1.0% HSA) (human glucagon receptor) [nM] | cAMP EC50 (1.0% HSA) (human GLP-1 receptor) [nM] | cAMP Emax (1.0% HSA) (human GLP-1 receptor) [%]
B1 | 1.41 | > 9950 | 7.91 | 99.5
B2 | 0.595 | > 9950 | 7.27 | –
B3 | 0.451 | > 9950 | 5.47 | –
B4 | 0.247 | > 10100 | 2.76 | –
B5 | 0.726 | > 9950 | 7.61 | –
B6 | 2.44 | > 9950 | 32.3 | –
B7 | 0.568 | > 9950 | 4.36 | –
B8 | 0.334 | > 9950 | 4.69 | –
B9 | 0.314 | > 10100 | 3.32 | –
B10 | 0.211 | > 9950 | 1.44 | –
B11 | 1.3 | > 9950 | 18.6 | –
B12 | 1.21 | > 9950 | 16.8 | –
B13 | 0.518 | > 9950 | 7.23 | –
